Assay results published in patent US20230324389.

MMP9, sequence (chain, as listed by the source): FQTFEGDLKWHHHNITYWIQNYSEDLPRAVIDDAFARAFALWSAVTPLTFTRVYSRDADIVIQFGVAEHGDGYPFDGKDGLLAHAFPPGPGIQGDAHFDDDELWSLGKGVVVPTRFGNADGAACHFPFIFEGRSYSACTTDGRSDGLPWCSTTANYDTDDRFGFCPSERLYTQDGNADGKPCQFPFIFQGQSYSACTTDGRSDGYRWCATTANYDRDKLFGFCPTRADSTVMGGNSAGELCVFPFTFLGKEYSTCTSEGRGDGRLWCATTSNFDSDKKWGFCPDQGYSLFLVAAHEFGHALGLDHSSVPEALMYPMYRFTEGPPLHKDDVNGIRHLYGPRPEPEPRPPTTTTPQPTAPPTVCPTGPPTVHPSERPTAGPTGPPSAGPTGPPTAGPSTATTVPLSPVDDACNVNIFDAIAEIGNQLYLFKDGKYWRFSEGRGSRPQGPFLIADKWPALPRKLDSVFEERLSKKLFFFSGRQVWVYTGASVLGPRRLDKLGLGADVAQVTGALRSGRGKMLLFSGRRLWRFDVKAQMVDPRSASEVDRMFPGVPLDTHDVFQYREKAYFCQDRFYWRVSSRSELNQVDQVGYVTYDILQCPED

| Substance | unmasking (protease cleavage) rate (818-P1) | unmasking (protease cleavage) rate (818-C1MA) | unmasking (protease cleavage) rate (818-C1 MB) | unmasking (protease cleavage) activity (818-P1) | unmasking (protease cleavage) activity (818-C1MA) | unmasking (protease cleavage) activity (818-C1 MB) |
| --- | --- | --- | --- | --- | --- | --- |
| MMP9 | MMP9: 818-P1>818-C1 MB>818-C1MA | MMP9: 818-P1>818-C1 MB>818-C1MA | MMP9: 818-P1>818-C1 MB>818-C1MA | – | – | – |
| Urokinase-type Plasminogen Activator (uPA) | – | – | – | Unmasking activity attributable to uPA required higher concentrations of proteases and longer digestion times | Unmasking activity attributable to uPA required higher concentrations of proteases and longer digestion times | Unmasking activity attributable to uPA required higher concentrations of proteases and longer digestion times |
